Laboratory results reported in publication PMC2175344.

How the values were obtained:
Assay in all cases: fluorescence anisotropy
APOBEC3G (A3G) = APOBEC3G (A3G) (Homo sapiens, UniProt Q9HC16 1-384)
[1] = biological target: HIV-1 reverse transcriptase (RT) (HIV-1, UniProt P04585;P04585 588-1147;588-1027)
[2] = biological target: HIV-1 nucleocapsid protein (NC) (HIV-1, UniProt P12493 378-432)

APOBEC3G (A3G), sequence (Q9HC16 whole entry): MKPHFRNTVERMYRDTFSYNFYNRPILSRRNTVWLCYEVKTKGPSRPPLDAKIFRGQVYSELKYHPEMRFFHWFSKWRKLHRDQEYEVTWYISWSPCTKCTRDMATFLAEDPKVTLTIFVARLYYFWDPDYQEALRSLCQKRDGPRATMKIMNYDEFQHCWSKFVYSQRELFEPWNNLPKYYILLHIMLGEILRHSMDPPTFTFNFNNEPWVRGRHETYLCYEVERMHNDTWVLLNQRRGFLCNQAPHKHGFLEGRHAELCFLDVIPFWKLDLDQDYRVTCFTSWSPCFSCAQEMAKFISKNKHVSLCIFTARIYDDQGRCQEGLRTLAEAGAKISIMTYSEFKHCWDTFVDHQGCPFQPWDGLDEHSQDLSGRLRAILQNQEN

CTTCTTTGGGAGTGAATTAG (ssDNA) [5'-FAM-JL587D 20-mer]
Kd (APOBEC3G (A3G)): 0.238 ± 0.095 µM | Kd [1]: 1.84 ± 0.39 µM | Kd [2]: 0.0841 ± 0.0078 µM
